# Source: patent publication US20190367619A1 (ARGENX, published 2019)
# Positions count from the first letter of the chain named.
# T1: human galectin-10-His (recombinant human galectin-10 with TEV-cleavable N-terminal His-tag) (human)
# T1 construct: SEC-MALLS: dimer in solution; also called Gal10-His; humanGal10-His
# T1 chain: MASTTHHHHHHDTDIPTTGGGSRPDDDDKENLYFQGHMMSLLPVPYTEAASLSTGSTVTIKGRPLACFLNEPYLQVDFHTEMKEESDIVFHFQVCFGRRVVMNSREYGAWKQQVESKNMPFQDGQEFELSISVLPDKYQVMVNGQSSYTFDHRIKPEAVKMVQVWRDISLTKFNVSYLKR
# T2: human galectin-10 as coated in ELISA (soluble galectin-10; tag not given) (human, UniProt Q05315 1-142, limits assumed)
# T2 construct: also called coated galectin-10; Gal10
# T2 sequence: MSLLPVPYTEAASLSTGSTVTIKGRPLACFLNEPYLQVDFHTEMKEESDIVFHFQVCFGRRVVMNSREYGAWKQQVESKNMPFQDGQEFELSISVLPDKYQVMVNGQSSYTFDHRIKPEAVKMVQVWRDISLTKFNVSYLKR
# T3: human galectin-10-His (human)
# T3 construct: Whether the last M of the tag is the start Met of galectin-10 is not clear; also called human Gal10-HIS; humanGal10-His
# T3 chain: T1 chain
# T4: cynomolgus galectin-10-His, YRT isoform (cynomolgus)
# T4 construct: not shown: His tag
# T4 chain: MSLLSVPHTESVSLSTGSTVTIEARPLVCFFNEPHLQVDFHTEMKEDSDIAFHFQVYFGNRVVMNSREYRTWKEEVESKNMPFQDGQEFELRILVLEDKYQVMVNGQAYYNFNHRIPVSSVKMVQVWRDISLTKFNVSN
# B1: 1A12 scFv-human Fc (Fc fusion)
# scFv: QVQLVESGGGLVQPGGSLRVSCAASGFTFSSYYMSWVRQAPGKGLEWVSAINSGGGSTYYADSVKGRFTISRDNAKNTLYLQMNSLKSEDTAVYYCVQNGGIWSFGSWGQGTQVTVSSGGGGSGGGGSGGGGSSSALTQPSAISVSLGQTARITCQGGNFGYYYVSWYQQKPGQAPVQVIYGDSNRPSGIPERFSGSSSGGTATLTISGAQAEDEADYYCLSYESSDYPVFGGGTHLTVL
# notes: about 100 kDa on SDS-PAGE; also called 1A12 ScFv-hFc; not shown: CH2-CH3 constant domains of human IgG1 (vector pUPEX50)
# B2: scFv 1A12 (periplasmic extract, Myc-tagged) (scFv, not shown: small tags and cut ends)
# scFv: B1 scFv
# B3: scFv 2B11 (periplasmic extract, Myc-tagged) (scFv, not shown: small tags and cut ends)
# scFv: QVQLQESGPGLVKPSQTLSLTCTVSGGSITTNYYYWSWIRQPPGKGLEWMGAIAYSGSTYYSPSLKSRTSISRDTSKNQFTLQLSSVTPEDTAVYYCARAPYGISREYDYWGQGTQVTVSSGGGGSGGGGSGGGGSHSAVTQPSAVSVSLGQTARITCQGGKFGRYYASWYQQKPGQAPVLVIYKDSERPSGIPERFSGSSSGDTATLSISGAQAEDEADYFCQSGRSSDNAVFGGGTHLTVL
# B4: VHH clone 13C03 (VHH)
# VHH: QVQLVESGGGLVQPGGSLRLSCAASGSIFSISRMGWYRQAPGKQRELVAIIFSDASTDYADSVKGRFTISRSNAKNTVYLQMNSLKPEDTAVYYCKSVLRAAGYGYFNQYWGQGTQVTVSS
# notes: Purified VHH-Myc-His from E. coli; not shown: Myc and His tags of the phagemid vector
# B5: scFv 2E11 (periplasmic extract, Myc-tagged) (scFv, not shown: small tags and cut ends)
# scFv: EVQLVESGGGLVQPGGSLRLSCAASGFTFSSYAMSWVRQAPGKGLEWVSPINSGSDSASYVDSVKGRFTISRDNAKNTLYLQMNSLKPEDTAVYYCAKARTSVVAGGMDYWGKGTLVTVSSGGGGSGGGGSGGGGSQSALTQPSAVSVSLGQTARITCQGGKFGSYYVSWYQQKPGQAPVMVIYKDNERPSGIPERFSGSSSGSTSTLTISGAQAEDEGTYYCQSGSSSDNIVFGGGTELTVF
# B6: scFv 6A11 (periplasmic extract, Myc-tagged) (scFv, not shown: small tags and cut ends)
# scFv: ELQLVESGGGLVQPGGSLRLSCSASGFTFGAYAMNWVRQAPGKGLEWVSGVNSGGGLTSYGESVKGRFTISRDNAKNTLYLQMNRLNPDDTAVYYCAKSKRGAVVAGTGDDYWGQGTQVTVSSGGGGSGGGGSGGGGSSSALTQPSAVSVSLGQTARITCQGGNFGRYYVSWYQQKPGQAPVLVIYKDSERPSGIPERFSGSSSGDTATLTISGAQAEDEADYYCQSGSSSDNAVFGGGTHLTVL
# B7: scFv 5E12 (periplasmic extract, Myc-tagged) (scFv, not shown: small tags and cut ends)
# scFv: QLQLVESGGGLVQPGGSLRLSCVASGFTFRNYPMTWVRQAPGKGPEWVSAINGGGDIPYYADSVKGRFTISRDNAKNTVYLQMDSLKPEDTAMYYCAKQKWGYDPRRTDFEFRGQGTQVTVSSGGGGSGGGGSGGGGSETVPTQSPSSVTASVGEKVTITCKSSQSVRIESNHKTYLNWYQQRPGRGPRLLIYDASSRESGIPDRFSGSGSTSDFTLTISSVQPEDAAVYYCQQAYAAPTFGQGTKLEIK
# B8: 5E12 scFv-human Fc (Fc fusion)
# scFv: B7 scFv
# notes: about 100 kDa on SDS-PAGE; also called 5E12 ScFv-hFc; not shown: CH2-CH3 constant domains of human IgG1 (vector pUPEX50)
# B9: VHH clone 13B06 (VHH)
# VHH: QVQLVESGGGLVQAGGSLRLSCAASGRTFSTYSMAWFRQAPGKEREFVAAITRSGGNTYADSVKGRFTISRDNAKNTVTLQMNSLKPEDTAAYHCAAGGTYSFVPRSYNYWGQGTQVTVSS
# notes: as for B4
# B10: VHH clone 13C04 (VHH)
# VHH: B9 VHH with Q1E, V2L, L4V
# notes: as for B4
# B11: scFv 6F11 (periplasmic extract, Myc-tagged) (scFv, not shown: small tags and cut ends)
# scFv: QVQRQESGPGLVKPSQTLSVTCTVSGGSITTGPYSWSWIRQPPGKGLEWIGYIGYSGSTYYSPSLKSRTSISRDTSNNQFSLQLSSVTPEDTAVYYCARSRSSPTTFGMDYWGKGTLVTVSSGGGGSGGGGSGGGGSSSALTQPSAVSVSLGQTARITCQGGDFGRYYVAWYTQKPGQAPVLVIYQDSERPSGIPERFSGSSSGDTATLTISGAQAEDEAEYYCQSGISSDNIVFGGGTHLTVL
# notes: also called 6F011
# B12: VHH clone 13E09 (VHH)
# VHH: QVQVQESGGGLVQAGNSLRLSCAASGRTFSSYHMMWFRQAPGKEREFVAAIAWRGGTYCANSVKGRCTISRDNAKDTVYLQMNSLKPEDTAVYFCAASLRYVFDPSAMDYWGKGTLVTVSS
# notes: as for B4
# B13: 3A03 scFv-human Fc (Fc fusion)
# scFv: QVQLVESGGGLVQPGGSLRLSCATSGFTFSVYAMSWVRQAPGKGLEWVADINTSGDSTTYADSVKGRFTISRDNAKNTLYLQMNSLKPEDTAVYYCANRYTQERGQGTQVTVSSGGGGSGGGGSGGGGSDVVLTQTPGSLSVVPGEAASISCKPGRTLVHTDGRTYLYWLQQKPGQRPQLLIYQVSNRGSGVPDRFTGSGSGTDFTLKISGVKAEDAGVYYCAQATYYPLTFGSGTRLEIK
# notes: about 100 kDa on SDS-PAGE; also called 3A03 ScFv-hFc; not shown: CH2-CH3 constant domains of human IgG1 (vector pUPEX50)
# B14: scFv 3A03 (periplasmic extract, Myc-tagged) (scFv, not shown: small tags and cut ends)
# scFv: B13 scFv
# B15: scFv 6F05 (periplasmic extract, Myc-tagged) (scFv, not shown: small tags and cut ends)
# scFv: QLQLVESGGGLVQPGGSLRLSCAASGFTFSSYAMSWVRQAPGKGLEWVSAINSGGGSTSYADSVKGRFTISRDNAKNTLYLQMNSLKPEDTAVYYCATPGDRLWYYRYDYWGQGTQVTVSSGGGGSGGGGSGGGGSQAGLTQPPSVSGTLGKAVTISCAGTSSDIGYGNYVSWYQQLPGTAPKLLIYKVSRRASGVPDRFSGSKSGNTASLSISGLQSEDEADYYCASYRYRNNVVFGGGTHLTVL
# notes: also called 6F5
# Key:
# [1] = biological target: T1, human galectin-10-His (recombinant …); test: ELISA, scFv-hFc on coated galectin-10-His (0.2 ug/mL)
# Procedure: In a similar setup to that used during the initial screening, the relative binding properties of the 12 scFv-human Fc clones were analyzed by ELISA. Briefly, a Maxisorp plate was coated with galectin-10-His at 0.2 μg/mL and blocked with casein, before being incubated with a serial dilution of the scFv-human Fc fusion molecules. After several washing steps, detection of the bound scFv-human Fc was carried out with an anti-human Fc-HRP antibody. Absorbance was measured at 450 nm (reference at 620 nm) with Tecan instrument. Finally, the raw data (OD values) were plotted on GraphPad Prism 7.01. The EC50 value of each compound was calculated with a non-linear regression (log(agonist) vs. response Variable slope (four parameters)).
# [2] = biological target: T1, human galectin-10-His (recombinant …); test: SPR Biacore T3000, scFv-hFc captured by anti-human Fc, galectin-10-His as analyte
# Procedure: In order to determine the binding properties (on-rate/off-rate) of the scFv-human Fc panel, their binding capacity to galectin-10 was analyzed on Biacore T3000. For this purpose, a capture approach was set up. A CM5 Chip was coated with polyclonal anti-human Fc at 8000 RU, then a fixed concentration of the scFv-human Fc panel (1.5 μg/mL), diluted in HBS-EP pH7.4, were captured to reach a binding signal around 150 RU. Finally, a serial dilution of galectin-10-His (serial dilution, 1 over 2 from 5 μg/mL, 6 points of dilution) diluted in HBS-EP pH7.4 was injected. Raw data were analyzed via BIA evaluation software with a blank subtraction (4-3). The kd/KD and Rmax of each scFv-human Fc for galectin-10-His was determined using the Fit Kinetics simultaneous ka/kd/Binding with mass transfer/Local Rmax on BIA evaluation software.
# [3] = biological target: T2, human galectin-10 as coated in ELISA …; test: ELISA, scFv periplasmic extract on coated soluble galectin-10, anti-Myc-HRP
# Procedure: In order to test the binding capacity of the scFvs to galectin-10, an ELISA binding assay was established. Briefly, a Maxisorp plate was coated with soluble galectin-10 (1 μg/mL), then blocked with casein, before being incubated with the periplasmic extract (dilution 1/5 in PBS) containing the scFv-Myc. Detection of the binder was carried out with an anti-Myc-HRP antibody. Absorbance was measured at 450 nm (reference at 620 nm) with Tecan instrument. A significant number of galectin-10 scFv binders were isolated after the second round of selection (45-87% of binders).
# human galectin-10-His = biological target: T3, human galectin-10-His; test: ELISA, Gal10-His coated at 1 ug/mL, VHH titrated, anti-Myc-HRP
# Procedure: (§1) The binding capacity of the 15 VHH clones was analysed by ELISA. Briefly, a Maxisorp plate was coated overnight with human or cynomolgus WGS or YRT isoforms galectin-10-His at 1 μg/mL and blocked with PBS 1% casein, before being incubated with a serial dilution of the VHH (from 4 μM, dilution 1/3, 12 points of dilutions). […] Absorbance was measured at 450 nm (reference at 620 nm) with Tecan instrument. Finally, the raw data (OD values) were plotted on GraphPad Prism 7.01. […] As a positive control, clone 1D06 from the previous human specific panel was included.
# [4] = biological target: T4, cynomolgus galectin-10-His, YRT isoform; test: as above
# Procedure: as §1
binder,measurement,setting,value
B1,Bmax (OD values),[1],0.409 OD
same,Kd,[2],11.7 nM
same,koff,[2],0.00315 s⁻¹
B2,PERI-ELISA binding (OD values),[3],2.13 OD
B3,PERI-ELISA binding (OD values),[3],3.79 OD
B4,Bmax (OD values),human galectin-10-His,2 OD
same,EC50,human galectin-10-His,30.6 nM
B5,PERI-ELISA binding (OD values),[3],3.51 OD
B6,PERI-ELISA binding (OD values),[3],2.35 OD
B7,PERI-ELISA binding (OD values),[3],2.42 OD
B8,Bmax (OD values),[1],1.84 OD
same,EC50,[1],0.25 nM
same,Kd,[2],4.73 nM
same,koff,[2],0.00177 s⁻¹
B9,Bmax (OD values),[4],2 OD
same,Bmax (OD values),human galectin-10-His,1 OD
B10,Bmax (OD values),[4],2.5 OD
same,Bmax (OD values),human galectin-10-His,1.1 OD
B11,PERI-ELISA binding (OD values),[3],3.76 OD
B12,Bmax (OD values),[4],3 OD
same,EC50,[4],66.9 nM
same,Bmax (OD values),human galectin-10-His,1.8 OD
same,EC50,human galectin-10-His,106 nM
B13,Bmax (OD values),[1],1.81 OD
same,EC50,[1],0.06 nM
same,Kd,[2],1.56 nM
same,koff,[2],0.0111 s⁻¹
B14,PERI-ELISA binding (OD values),[3],3.4 OD
B15,PERI-ELISA binding (OD values),[3],3.83 OD
